Reference: US10941182 (Amgen, dated 2021)
Values belong to the binder of their own block, whether it stands above or below them. Starred links: 1 amine or outer side, 2 acyl side, 3 side chain; linkers in the order of their positions; H or OH if unused. Non-standard residues stand in square brackets, D forms with d. Primed or numbered codes have the meaning given here. *: point of attachment. dBip = N[C@H](Cc1ccc(-c2ccccc2)cc1)C(=O)O; Oic = O=C(O)[C@@H]1C[C@@H]2CCCC[C@@H]2N1; Phe(4-Cl) = N[C@@H](Cc1ccc(Cl)cc1)C(=O)O; Phe(4-I) = N[C@@H](Cc1ccc(I)cc1)C(=O)O; γGlu = O=C(O)[C@H](CCC(=O)[*:2])N[*:1]; Tridecanoyl = CCCCCCCCCCCCC(=O)*; hArg = N=C(N)NCCCC[C@H](N)C(=O)O; Cha = N[C@@H](CC1CCCCC1)C(=O)O; NMeL = CN[C@@H](CC(C)C)C(=O)O; Nle = CCCC[C@H](N)C(=O)O; Pip′ = not defined here; AEEA = NCCOCCOCC(=O)O

Tests used:
human APJ receptor = biological target: T1, human APJ receptor (human, UniProt P35414 1-380); assay: cell-based or functional assay
T1 sequence (looked up): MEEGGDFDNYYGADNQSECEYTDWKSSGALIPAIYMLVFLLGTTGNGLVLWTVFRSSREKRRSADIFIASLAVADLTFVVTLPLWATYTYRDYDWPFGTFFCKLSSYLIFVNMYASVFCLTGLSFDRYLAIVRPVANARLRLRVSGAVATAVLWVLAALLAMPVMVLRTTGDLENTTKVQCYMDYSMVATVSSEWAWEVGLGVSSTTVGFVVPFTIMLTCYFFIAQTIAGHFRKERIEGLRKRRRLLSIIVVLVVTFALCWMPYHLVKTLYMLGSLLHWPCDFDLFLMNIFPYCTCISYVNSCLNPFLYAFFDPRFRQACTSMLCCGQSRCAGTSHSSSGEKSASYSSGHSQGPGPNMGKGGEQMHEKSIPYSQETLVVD

rat APJ receptor = biological target: T2, rat APJ receptor (rat, UniProt Q9JHG3 1-377); assay: cell-based or functional assay
T2 sequence (looked up): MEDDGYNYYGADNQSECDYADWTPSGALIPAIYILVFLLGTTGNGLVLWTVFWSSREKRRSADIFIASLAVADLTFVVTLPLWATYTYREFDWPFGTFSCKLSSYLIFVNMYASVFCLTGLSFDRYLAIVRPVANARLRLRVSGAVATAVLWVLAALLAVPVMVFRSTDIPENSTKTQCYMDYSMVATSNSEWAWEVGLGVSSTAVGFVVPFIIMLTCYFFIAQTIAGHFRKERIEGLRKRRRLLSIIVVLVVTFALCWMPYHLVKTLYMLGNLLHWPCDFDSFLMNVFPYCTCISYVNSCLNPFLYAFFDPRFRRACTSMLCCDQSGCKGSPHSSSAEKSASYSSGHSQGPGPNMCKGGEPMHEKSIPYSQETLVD

EC50 Human APJ Receptor (GTPγS assay) (human APJ receptor): 2.55 nM
EC50 Rat APJ Receptor (GTPγS assay) (rat APJ receptor): 4.53 nM
B1: Apelin polypeptide SEQ ID NO: 339 (peptide)
peptide: Tridecanoyl-[γGlu][AEEA][AEEA]RQ[Nle]P[hArg][Cha]SHKG[Oic][Nle]P[Phe(4-Cl)]-OH
SMILES: CCCCCCCCCCCCC(=O)N[C@@H](CCC(=O)NCCOCCOCC(=O)NCCOCCOCC(=O)N[C@@H](CCCNC(=N)N)C(=O)N[C@@H](CCC(N)=O)C(=O)N[C@@H](CCCC)C(=O)N1CCC[C@H]1C(=O)N[C@@H](CCCCNC(=N)N)C(=O)N[C@@H](CC1CCCCC1)C(=O)N[C@@H](CO)C(=O)N[C@@H](Cc1c[nH]cn1)C(=O)N[C@@H](CCCCN)C(=O)NCC(=O)N1[C@H](C(=O)N[C@@H](CCCC)C(=O)N2CCC[C@H]2C(=O)N[C@@H](Cc2ccc(Cl)cc2)C(=O)O)C[C@@H]2CCCC[C@@H]21)C(=O)O

EC50 Human APJ Receptor (GTPγS assay) (human APJ receptor): 1.59 nM
EC50 Rat APJ Receptor (GTPγS assay) (rat APJ receptor): 1.8 nM
B2: Apelin polypeptide SEQ ID NO: 351 (peptide)
peptide: Tridecanoyl-[γGlu][AEEA][AEEA]RQRP[hArg][Cha]AA[Nle]G[Oic][Nle]P[Phe(4-Cl)]-OH
SMILES: CCCCCCCCCCCCC(=O)N[C@@H](CCC(=O)NCCOCCOCC(=O)NCCOCCOCC(=O)N[C@@H](CCCNC(=N)N)C(=O)N[C@@H](CCC(N)=O)C(=O)N[C@@H](CCCNC(=N)N)C(=O)N1CCC[C@H]1C(=O)N[C@@H](CCCCNC(=N)N)C(=O)N[C@@H](CC1CCCCC1)C(=O)N[C@@H](C)C(=O)N[C@@H](C)C(=O)N[C@@H](CCCC)C(=O)NCC(=O)N1[C@H](C(=O)N[C@@H](CCCC)C(=O)N2CCC[C@H]2C(=O)N[C@@H](Cc2ccc(Cl)cc2)C(=O)O)C[C@@H]2CCCC[C@@H]21)C(=O)O

EC50 Human APJ Receptor (GTPγS assay) (human APJ receptor): 1.4 nM
EC50 Rat APJ Receptor (GTPγS assay) (rat APJ receptor): 1.24 nM
B3: Apelin polypeptide SEQ ID NO: 343 (peptide)
peptide: Tridecanoyl-[γGlu][AEEA][AEEA]RQ[Nle]P[hArg][Cha]SAKG[Oic][Nle]P[Phe(4-Cl)]-OH
SMILES: CCCCCCCCCCCCC(=O)N[C@@H](CCC(=O)NCCOCCOCC(=O)NCCOCCOCC(=O)N[C@@H](CCCNC(=N)N)C(=O)N[C@@H](CCC(N)=O)C(=O)N[C@@H](CCCC)C(=O)N1CCC[C@H]1C(=O)N[C@@H](CCCCNC(=N)N)C(=O)N[C@@H](CC1CCCCC1)C(=O)N[C@@H](CO)C(=O)N[C@@H](C)C(=O)N[C@@H](CCCCN)C(=O)NCC(=O)N1[C@H](C(=O)N[C@@H](CCCC)C(=O)N2CCC[C@H]2C(=O)N[C@@H](Cc2ccc(Cl)cc2)C(=O)O)C[C@@H]2CCCC[C@@H]21)C(=O)O

EC50 Human APJ Receptor (GTPγS assay) (human APJ receptor): 3.46 nM
EC50 Rat APJ Receptor (GTPγS assay) (rat APJ receptor): 5.58 nM
B4: Apelin polypeptide SEQ ID NO: 344 (peptide)
peptide: Tridecanoyl-[γGlu][AEEA][AEEA]RQRP[Nle][Cha]AHKG[Oic][Nle]P[Phe(4-Cl)]-OH
SMILES: CCCCCCCCCCCCC(=O)N[C@@H](CCC(=O)NCCOCCOCC(=O)NCCOCCOCC(=O)N[C@@H](CCCNC(=N)N)C(=O)N[C@@H](CCC(N)=O)C(=O)N[C@@H](CCCNC(=N)N)C(=O)N1CCC[C@H]1C(=O)N[C@@H](CCCC)C(=O)N[C@@H](CC1CCCCC1)C(=O)N[C@@H](C)C(=O)N[C@@H](Cc1c[nH]cn1)C(=O)N[C@@H](CCCCN)C(=O)NCC(=O)N1[C@H](C(=O)N[C@@H](CCCC)C(=O)N2CCC[C@H]2C(=O)N[C@@H](Cc2ccc(Cl)cc2)C(=O)O)C[C@@H]2CCCC[C@@H]21)C(=O)O

EC50 Human APJ Receptor (GTPγS assay) (human APJ receptor): 9.17 nM
EC50 Rat APJ Receptor (GTPγS assay) (rat APJ receptor): 7.7 nM
B5: Apelin polypeptide SEQ ID NO: 328 (peptide)
peptide: Tridecanoyl-[γGlu][AEEA][AEEA][hArg][dR]Q[Nle]P[dR][NMeL]SAKG[Oic][Phe(4-I)]P[dBip]-OH
SMILES: CCCCCCCCCCCCC(=O)N[C@@H](CCC(=O)NCCOCCOCC(=O)NCCOCCOCC(=O)N[C@@H](CCCCNC(=N)N)C(=O)N[C@H](CCCNC(=N)N)C(=O)N[C@@H](CCC(N)=O)C(=O)N[C@@H](CCCC)C(=O)N1CCC[C@H]1C(=O)N[C@H](CCCNC(=N)N)C(=O)N(C)[C@@H](CC(C)C)C(=O)N[C@@H](CO)C(=O)N[C@@H](C)C(=O)N[C@@H](CCCCN)C(=O)NCC(=O)N1[C@H](C(=O)N[C@@H](Cc2ccc(I)cc2)C(=O)N2CCC[C@H]2C(=O)N[C@H](Cc2ccc(-c3ccccc3)cc2)C(=O)O)C[C@@H]2CCCC[C@@H]21)C(=O)O

EC50 Human APJ Receptor (GTPγS assay) (human APJ receptor): 0.345 nM
EC50 Rat APJ Receptor (GTPγS assay) (rat APJ receptor): 0.676 nM
B6: Apelin polypeptide SEQ ID NO: 340 (peptide)
peptide: Tridecanoyl-[γGlu][AEEA][AEEA]RQRP[hArg][Cha]SA[Nle]G[Oic][Nle]P[Phe(4-Cl)]-OH
SMILES: CCCCCCCCCCCCC(=O)N[C@@H](CCC(=O)NCCOCCOCC(=O)NCCOCCOCC(=O)N[C@@H](CCCNC(=N)N)C(=O)N[C@@H](CCC(N)=O)C(=O)N[C@@H](CCCNC(=N)N)C(=O)N1CCC[C@H]1C(=O)N[C@@H](CCCCNC(=N)N)C(=O)N[C@@H](CC1CCCCC1)C(=O)N[C@@H](CO)C(=O)N[C@@H](C)C(=O)N[C@@H](CCCC)C(=O)NCC(=O)N1[C@H](C(=O)N[C@@H](CCCC)C(=O)N2CCC[C@H]2C(=O)N[C@@H](Cc2ccc(Cl)cc2)C(=O)O)C[C@@H]2CCCC[C@@H]21)C(=O)O

EC50 Human APJ Receptor (GTPγS assay) (human APJ receptor): 4.51 nM
EC50 Rat APJ Receptor (GTPγS assay) (rat APJ receptor): 5.79 nM
B7: Apelin polypeptide SEQ ID NO: 345 (peptide)
peptide: Tridecanoyl-[γGlu][AEEA][AEEA]RQRP[Nle][Cha]AAKG[Oic][Nle]P[Phe(4-Cl)]-OH
SMILES: CCCCCCCCCCCCC(=O)N[C@@H](CCC(=O)NCCOCCOCC(=O)NCCOCCOCC(=O)N[C@@H](CCCNC(=N)N)C(=O)N[C@@H](CCC(N)=O)C(=O)N[C@@H](CCCNC(=N)N)C(=O)N1CCC[C@H]1C(=O)N[C@@H](CCCC)C(=O)N[C@@H](CC1CCCCC1)C(=O)N[C@@H](C)C(=O)N[C@@H](C)C(=O)N[C@@H](CCCCN)C(=O)NCC(=O)N1[C@H](C(=O)N[C@@H](CCCC)C(=O)N2CCC[C@H]2C(=O)N[C@@H](Cc2ccc(Cl)cc2)C(=O)O)C[C@@H]2CCCC[C@@H]21)C(=O)O

EC50 Human APJ Receptor (GTPγS assay) (human APJ receptor): 0.331 nM
EC50 Rat APJ Receptor (GTPγS assay) (rat APJ receptor): 1.49 nM
Binder: Tridecanoyl-[γGlu][AEEA][AEEA]RQ[Nle]P[hArg][Cha]SAKG[Pip′][Nle]P[Phe(4-Cl)]-OH [Apelin polypeptide SEQ ID NO: 564]

EC50 Human APJ Receptor (GTPγS assay) (human APJ receptor): 0.714 nM
EC50 Rat APJ Receptor (GTPγS assay) (rat APJ receptor): 0.986 nM
B8: Apelin polypeptide SEQ ID NO: 336 (peptide)
peptide: Tridecanoyl-[γGlu][AEEA][AEEA]RQRP[hArg][Cha]SH[Nle]G[Oic][Nle]P[Phe(4-Cl)]-OH
SMILES: CCCCCCCCCCCCC(=O)N[C@@H](CCC(=O)NCCOCCOCC(=O)NCCOCCOCC(=O)N[C@@H](CCCNC(=N)N)C(=O)N[C@@H](CCC(N)=O)C(=O)N[C@@H](CCCNC(=N)N)C(=O)N1CCC[C@H]1C(=O)N[C@@H](CCCCNC(=N)N)C(=O)N[C@@H](CC1CCCCC1)C(=O)N[C@@H](CO)C(=O)N[C@@H](Cc1c[nH]cn1)C(=O)N[C@@H](CCCC)C(=O)NCC(=O)N1[C@H](C(=O)N[C@@H](CCCC)C(=O)N2CCC[C@H]2C(=O)N[C@@H](Cc2ccc(Cl)cc2)C(=O)O)C[C@@H]2CCCC[C@@H]21)C(=O)O

EC50 Human APJ Receptor (GTPγS assay) (human APJ receptor): 0.315 nM
EC50 Rat APJ Receptor (GTPγS assay) (rat APJ receptor): 0.964 nM
B9: Apelin polypeptide SEQ ID NO: 335 (peptide)
peptide: Tridecanoyl-[γGlu][AEEA][AEEA]RQRP[Nle][Cha]SHKG[Oic][Nle]P[Phe(4-Cl)]-OH
SMILES: CCCCCCCCCCCCC(=O)N[C@@H](CCC(=O)NCCOCCOCC(=O)NCCOCCOCC(=O)N[C@@H](CCCNC(=N)N)C(=O)N[C@@H](CCC(N)=O)C(=O)N[C@@H](CCCNC(=N)N)C(=O)N1CCC[C@H]1C(=O)N[C@@H](CCCC)C(=O)N[C@@H](CC1CCCCC1)C(=O)N[C@@H](CO)C(=O)N[C@@H](Cc1c[nH]cn1)C(=O)N[C@@H](CCCCN)C(=O)NCC(=O)N1[C@H](C(=O)N[C@@H](CCCC)C(=O)N2CCC[C@H]2C(=O)N[C@@H](Cc2ccc(Cl)cc2)C(=O)O)C[C@@H]2CCCC[C@@H]21)C(=O)O

EC50 Human APJ Receptor (GTPγS assay) (human APJ receptor): 1.02 nM
EC50 Rat APJ Receptor (GTPγS assay) (rat APJ receptor): 2.82 nM
Binder: Tridecanoyl-[γGlu][AEEA][AEEA][dR]QRP[hArg][NMeL]SHKG[Pip′][Phe(4-I)]P[dBip]-OH [Apelin polypeptide SEQ ID NO: 565]

EC50 Human APJ Receptor (GTPγS assay) (human APJ receptor): 0.285 nM
EC50 Rat APJ Receptor (GTPγS assay) (rat APJ receptor): 0.624 nM
B10: Apelin polypeptide SEQ ID NO: 350 (peptide)
peptide: Tridecanoyl-[γGlu][AEEA][AEEA]RQRP[Nle][Cha]SAKG[Oic][Nle]P[Phe(4-Cl)]-OH
SMILES: CCCCCCCCCCCCC(=O)N[C@@H](CCC(=O)NCCOCCOCC(=O)NCCOCCOCC(=O)N[C@@H](CCCNC(=N)N)C(=O)N[C@@H](CCC(N)=O)C(=O)N[C@@H](CCCNC(=N)N)C(=O)N1CCC[C@H]1C(=O)N[C@@H](CCCC)C(=O)N[C@@H](CC1CCCCC1)C(=O)N[C@@H](CO)C(=O)N[C@@H](C)C(=O)N[C@@H](CCCCN)C(=O)NCC(=O)N1[C@H](C(=O)N[C@@H](CCCC)C(=O)N2CCC[C@H]2C(=O)N[C@@H](Cc2ccc(Cl)cc2)C(=O)O)C[C@@H]2CCCC[C@@H]21)C(=O)O
